The record followed here is patent publication US20240092913A1 (HANALL BIOPHARMA, published 2024).

The target in assay [1] is T1, water-soluble hFcRn (human, UniProt P55899 24-297; P61769 21-119, limits assumed).
T1 construct: also called shFcRn; human FcRn
As to the kind of experiment: SPR (Proteon XPR36, GLC chip), shFcRn immobilised, antibody as analyte, pH 6.0, 1:1 Langmuir, mean of six runs. On the procedure: (§1) In kinetic analysis, a 1:1 Langmuir binding model was used, the analysis was repeated six times at each of pH 6.0 and pH 7.4, and the mean KD value was calculated. […], the chip was activated under the conditions of EDAC/NHS 0.5×, 30 μL/min and 300 sec. For immobilization, shFcRn was diluted in acetate buffer (pH 5.5) to concentrations of 2 μg/mL and 250 μL, and the dilution was allowed to flow on the chip at a rate of 30 μL/min. When an immobilization level of 200-300 RU was reached, the reaction was stopped. Then, deactivation was performed using ethanolamine at a rate of 30 μL/min for 300 sec. […] Sample dilution was performed using 1× PBST (pH 7.4) or 1× PBST (pH 6.0) at each pH. For sample analysis, association was performed at 50 μL/min for 200 sec, and the dissociation step was performed at 50 μL/min for 600 sec, after which regeneration was performed using glycine buffer (pH 2.5) at 100 μL/min for 18 sec. The kinetic analysis of each sample was repeated six times, and then the mean antigen binding affinity (KD) was measured.

Assay [2] concerns the target T1, water-soluble hFcRn. In words: SPR (Proteon XPR36, GLC chip), shFcRn immobilised, antibody as analyte, pH 7.4, 1:1 Langmuir, mean of six runs. On the procedure: as §1
The target in assay [3] is T2, human FcRn on human FcRn-expressing stable HEK293 cells (human, UniProt P55899 24-365; P61769 21-119).
T2 construct: also called hFcRn-expressing HEK293 cells; human FcRn-overexpressing HEK293 cells
T2 sequence (P55899 24-365 limits assumed, chain 1 of 2): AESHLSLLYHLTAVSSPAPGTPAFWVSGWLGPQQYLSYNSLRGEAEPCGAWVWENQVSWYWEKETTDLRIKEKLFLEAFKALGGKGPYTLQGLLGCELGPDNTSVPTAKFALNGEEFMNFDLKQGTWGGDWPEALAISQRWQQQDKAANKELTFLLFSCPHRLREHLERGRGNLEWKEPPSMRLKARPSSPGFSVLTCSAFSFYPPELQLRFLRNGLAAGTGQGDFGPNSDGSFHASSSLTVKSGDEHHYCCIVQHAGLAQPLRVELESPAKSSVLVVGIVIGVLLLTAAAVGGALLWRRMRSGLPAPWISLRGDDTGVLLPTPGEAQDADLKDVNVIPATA
T2 sequence (P61769 21-119 limits assumed, chain 2 of 2): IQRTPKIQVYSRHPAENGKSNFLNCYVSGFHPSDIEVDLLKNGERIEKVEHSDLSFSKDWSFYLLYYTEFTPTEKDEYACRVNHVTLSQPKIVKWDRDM
As to the kind of experiment: FACS on human FcRn-expressing stable HEK293 cells, pH 7.4, 0.11-250 nM antibody, 4 parameter logistic regression of MFI. On the procedure:
The plate was mounted in a rotator at 4° C. and rotated at an angle of 15° and 10 rpm for 90 minutes. […] The FACS measurement was performed under the following conditions: FS 108 volts, SS 426 volts, FL1 324 volts, FL2 300 volts. These cells were analyzed by FACS using BD FACSDiva™ v6.1.3 software (BD Bioscience).

For assay [4], the target named is T2, human FcRn on human FcRn-expressing …. As to the kind of experiment: FACS competition on human FcRn-overexpressing HEK293 cells, pH 6.0, blocking of Alexa488-hIgG1, antibody 0.01-200 nM, 4-parameter logistic regression. On the procedure: Each antibody sample was diluted to 400 nM, and then diluted by 4-fold serial dilution in a 96-well v-bottom plate. 50 μL of the sample diluted to a final concentration of 200 nM to 0.01 nM was added to each well. […] Finally, 40 μL of cells diluted to a cell concentration of 2.5×10⁶ cells/mL were added to each well and suspended. The plate was mounted in a rotator at 4° C. and rotated at an angle of 15° and 10 rpm for 90 minutes. After completion of the reaction, the plate was taken out of the rotator, and centrifuged at 2000 rpm for 10 minutes to remove the supernatant. 100 μL of reaction buffer was added to each well to dissolve the cell pellets, and the plate was transferred into a blue test tube. Then, 200 μL of reaction buffer was added to each well, and measurement was performed in FACS. The FACS measurement was performed under the following conditions: FS 108 volts, SS 426 volts, FL1 324 volts, FL2 300 volts. These cells were analyzed by FACS using BD FACSDiva™ v6.1.3 software (BD Bioscience). The results were expressed as mean fluorescence intensity (MFI). The MFI of the test group was processed after subtracting the measured MFI value of the cells alone (background signal).

Substitutions are numbered along the chain they refer to.

Broadly, the Kd is the equilibrium constant for the complex coming apart. Low readings indicate tighter binding, high ones weaker binding. As usually defined, the koff is a measure of how fast the partners let go of each other. Read a high koff as a short-lived complex. Usually kon stands for the rate constant with which the complex forms. The low end stands for slower complex formation, the high end for faster complex formation. By EC50 is commonly meant the concentration at which the effect is half-maximal. For orientation: IC50 means the concentration at which inhibition is half-maximal. A low value points to inhibition by little substance.

T1 sequence (P55899 24-297 limits assumed, chain 1 of 2): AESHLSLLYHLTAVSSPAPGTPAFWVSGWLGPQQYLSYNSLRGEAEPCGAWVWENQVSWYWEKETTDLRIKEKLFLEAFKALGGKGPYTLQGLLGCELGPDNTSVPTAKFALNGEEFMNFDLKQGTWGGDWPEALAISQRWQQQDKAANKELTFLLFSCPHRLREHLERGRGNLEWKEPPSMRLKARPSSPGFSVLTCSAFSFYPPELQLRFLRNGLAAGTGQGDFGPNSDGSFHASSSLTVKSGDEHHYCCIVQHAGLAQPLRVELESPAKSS
T1 sequence (P61769 21-119 limits assumed, chain 2 of 2): as the sequence (P61769 21-119 limits assumed, chain 2 of 2) above

B1: HL161A antibody (antibody, human IgG1, V domains shown)
VH: EVQLLESGGGLVQPGGSLRLSCAASEFTFGSCVMTWVRQAPGKGLEWVSVISGSGGSTYYADSVKGRFTISRDNSKNTLYLQMNSLRAEDTAVYYCAKTPWWLRSPFFDYWGQGTLVTVSS
VL: SYVLTQPPSVSVAPGQTARITCGGNNIGSTSVHWYQQKPGQAPVLVVHDDSDRPSGIPERFSGSNSGNTATLTISRVEAGDEADYYCQVRDSSSDHVIFGGGTKLTVLGQPKAAPSVTL
On to B1, for which, in assay [1], the Kd turned out to be 0.18 nM, the koff is 0.000326 s⁻¹ and the association rate constant (kon) turned out to be 1.81e+06 M⁻¹ s⁻¹. Also, in assay [2], the Kd was found to be 0.247 nM, the koff turned out to be 0.000327 s⁻¹ and the kon turned out to be 1.32e+06 M⁻¹ s⁻¹. The same molecule gave an EC50 in assay [3] of 2.46 nM. Besides, the IC50 in assay [4] stood at 0.92 nM.

B2: HL161B antibody (antibody, V domains shown)
VH: QLLLQESGPGLVKPSETLSLTCTVSGGSLSSSFSYWVWIRQPPGKGLEWIGTIYYSGNTYYNPSLKSRLTISVDTSKNHFSLNLSSVTAADTAVYYCARRAGILTGYLDSWGQGTLVTVSS
VL: B1 VL with P7S, T30K, H48Y, G63A, R90W, I98V
notes: the VL entry runs a few residues into the constant region
In assay [1], B2 came in with a Kd of 0.807 nM, a koff of 0.000735 s⁻¹ and a kon of 912000 M⁻¹ s⁻¹. In assay [2], this molecule displayed a Kd of 1.76 nM, a koff of 0.00125 s⁻¹ and a kon of 710000 M⁻¹ s⁻¹. In assay [3], the EC50 amounted to 1.2 nM. In addition, the IC50 in assay [4] amounted to 2.24 nM.

B3: HL161D antibody (antibody, human IgG1, V domains shown)
VH: QLQLQESGPGLVKPSETLSLTCTVSGGSISSSSYYWGWIRQPPGKGLEWIGNIYYSGSTYYNPSLMSRVTISVDTSKNQFSLKLSSVTAADTAVYYCARQLSYNWNDRLFDYWGQGTLVTVSS
VL: SYELTQPLSVSVALGQTARITCGGNNIGSKNVHWYQQKPGQAPVLVIYRDSNRPSGIPERFSGSNSGNTATLTISRAQAGDEADYYCQVWDSSTVVFGGGTKLTVLGQPKAAPSVTL
notes: as for B2
In assay [1], B3 had a Kd of 1.43 nM, a koff of 0.00138 s⁻¹ and a kon of 970000 M⁻¹ s⁻¹. In assay [2], this molecule displayed a Kd of 1.78 nM, a koff of 0.00124 s⁻¹ and a kon of 699000 M⁻¹ s⁻¹.

B4: HL161C antibody (antibody, human IgG1, V domains shown)
VH: QVQLVQSGAEVKKPGASVKVSCKASGYTFTGCYMHWVRQAPGQGLEWMGRINPNSGGTNYAQKFQGRVTMTRDTSISTAYMDLSRLRSDDTAVYYCARDYSGWSFDYWGQGTLVTVSS
VL: DIQMTQSPSSLSASVGDRVTITCRASQGISNYLAWFQQKPGKAPKSLIYAASSLQSGVPSKFSGSGSGTDFTLTISSLQSEDFATYYCQQYDSYPPTFGGGTKVEIKRTVAAPSVFI
Turning to B4, in assay [1], the affinity, expressed as Kd, was 0.191 nM; the koff stood at 0.000332 s⁻¹; the kon stood at 1.74e+06 M⁻¹ s⁻¹. Also, in assay [2], binding was characterised by a dissociation constant (Kd) of 0.232 nM, the koff worked out at 0.000316 s⁻¹ and the kon came out at 1.36e+06 M⁻¹ s⁻¹.
